Tests used:
Assay in all cases: EMSA
Conditions in all cases: tags: MBP fusion
[1] = molecular target: ZFP SBS#441 (synthetic)
Procedure, shortened: (§1)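 Purified ZFP was titrated against labeled double-stranded target (1 nM or lower, at least 10-fold below expected Kd) carrying the natural binding site with flanks. Binding buffer was 10 mM Tris pH 7.5, 100 mM KCl, 1 mM MgCl2, 0.1 mM ZnCl2, 5 mM DTT, 10% glycerol, 0.02% BSA, with equilibration for at least 45 min. Bound and free target were separated on a 10% polyacrylamide gel.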

[2] = molecular target: ZFP SBS#453 (synthetic)
Procedure, shortened: as §1

[3] = molecular target: ZFP SBS#1045 (synthetic)
Procedure, shortened: as §1

[4] = molecular target: ZFP SBS#1046 (synthetic)
Procedure, shortened: as §1

[5] = molecular target: T1, ZFP SBS#1047 (synthetic)
T1 chain: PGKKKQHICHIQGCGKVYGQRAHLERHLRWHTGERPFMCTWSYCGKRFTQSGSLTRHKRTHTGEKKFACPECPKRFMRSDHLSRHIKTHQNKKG
Procedure, shortened: as §1

[6] = molecular target: ZFP SBS#1040 (synthetic, UniProt P08047)
Procedure, shortened: as §1

[7] = molecular target: ZFP SBS#944 (synthetic, UniProt P08047)
Procedure, shortened: as §1

[8] = molecular target: T2, ZFP SBS#993 (synthetic, UniProt P08047)
T2 chain: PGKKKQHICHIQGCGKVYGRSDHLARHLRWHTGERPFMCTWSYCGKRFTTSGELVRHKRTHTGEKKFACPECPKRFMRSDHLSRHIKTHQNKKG
Procedure, shortened: as §1

[9] = molecular target: ZFP SBS#942 (synthetic, UniProt P08047)
Procedure, shortened: as §1

[10] = molecular target: T3, ZFP SBS#941 (synthetic)
T3 chain: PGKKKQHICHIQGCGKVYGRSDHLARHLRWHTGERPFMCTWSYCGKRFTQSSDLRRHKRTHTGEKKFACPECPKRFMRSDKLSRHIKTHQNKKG
Procedure, shortened: as §1

[11] = molecular target: T4, ZFP SBS#1039 (synthetic)
T4 chain: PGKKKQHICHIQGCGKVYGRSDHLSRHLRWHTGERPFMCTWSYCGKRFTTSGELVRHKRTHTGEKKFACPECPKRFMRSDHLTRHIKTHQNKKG
Procedure, shortened: as §1

[12] = molecular target: T5, ZFP SBS#943 (synthetic)
T5 chain: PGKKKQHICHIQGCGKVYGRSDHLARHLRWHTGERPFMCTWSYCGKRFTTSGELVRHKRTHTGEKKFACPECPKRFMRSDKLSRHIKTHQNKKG
Procedure, shortened: as §1

[13] = molecular target: T6, ZFP SBS#1066 (synthetic)
T6 chain: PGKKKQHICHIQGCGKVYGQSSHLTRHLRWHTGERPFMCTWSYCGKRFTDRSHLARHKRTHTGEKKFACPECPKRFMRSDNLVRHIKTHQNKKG
Procedure, shortened: as §1

[14] = molecular target: T7, ZFP SBS#1067 (synthetic)
T7 chain: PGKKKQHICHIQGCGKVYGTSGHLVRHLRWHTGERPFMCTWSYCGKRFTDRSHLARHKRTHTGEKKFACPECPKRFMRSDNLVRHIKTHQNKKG
Procedure, shortened: as §1

[15] = molecular target: T8, ZFP SBS#1064 (synthetic)
T8 chain: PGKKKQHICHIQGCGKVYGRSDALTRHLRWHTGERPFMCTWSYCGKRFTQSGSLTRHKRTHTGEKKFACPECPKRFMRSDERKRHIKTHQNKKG
Procedure, shortened: as §1

[16] = molecular target: T9, ZFP SBS#1053 (synthetic)
T9 chain: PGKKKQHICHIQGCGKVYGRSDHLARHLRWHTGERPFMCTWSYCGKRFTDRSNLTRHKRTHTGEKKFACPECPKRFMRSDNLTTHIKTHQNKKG
Procedure, shortened: as §1

[17] = molecular target: T10, ZFP SBS#1052 (synthetic)
T10 chain: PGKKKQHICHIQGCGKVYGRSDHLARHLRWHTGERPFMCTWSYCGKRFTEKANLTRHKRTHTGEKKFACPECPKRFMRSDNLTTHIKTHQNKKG
Procedure, shortened: as §1

[18] = molecular target: T11, ZFP SBS#1065 (synthetic)
T11 chain: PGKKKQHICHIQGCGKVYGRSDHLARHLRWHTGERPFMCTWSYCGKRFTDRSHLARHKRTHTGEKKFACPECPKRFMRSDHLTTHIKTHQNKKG
Procedure, shortened: as §1

[19] = molecular target: T12, ZFP SBS#1062 (synthetic)
T12 chain: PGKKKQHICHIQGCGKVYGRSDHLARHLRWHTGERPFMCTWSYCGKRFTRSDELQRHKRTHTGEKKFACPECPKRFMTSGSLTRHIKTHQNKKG
Procedure, shortened: as §1

[20] = molecular target: ZFP SBS#1061 (synthetic)
Procedure, shortened: as §1

[21] = molecular target: T13, ZFP SBS#1063 (synthetic, UniProt P08047)
T13 chain: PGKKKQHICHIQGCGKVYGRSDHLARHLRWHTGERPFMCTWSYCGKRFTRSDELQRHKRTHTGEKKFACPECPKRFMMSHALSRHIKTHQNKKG
Procedure, shortened: as §1

[22] = molecular target: T14, ZFP SBS#1058 (synthetic)
T14 chain: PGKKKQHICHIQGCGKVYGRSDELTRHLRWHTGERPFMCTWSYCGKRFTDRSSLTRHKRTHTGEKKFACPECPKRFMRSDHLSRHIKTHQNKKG
Procedure, shortened: as §1

[23] = molecular target: T15, ZFP SBS#1059 (synthetic)
T15 chain: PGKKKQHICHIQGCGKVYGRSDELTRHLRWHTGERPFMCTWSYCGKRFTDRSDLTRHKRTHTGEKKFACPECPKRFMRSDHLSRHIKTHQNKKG
Procedure, shortened: as §1

[24] = molecular target: T16, ZFP SBS#1041 (synthetic)
T16 chain: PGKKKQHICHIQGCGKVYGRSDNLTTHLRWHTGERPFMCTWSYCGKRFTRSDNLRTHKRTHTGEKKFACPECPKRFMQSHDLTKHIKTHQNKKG
Procedure, shortened: as §1

[25] = molecular target: T17, ZFP SBS#919 (synthetic)
T17 chain: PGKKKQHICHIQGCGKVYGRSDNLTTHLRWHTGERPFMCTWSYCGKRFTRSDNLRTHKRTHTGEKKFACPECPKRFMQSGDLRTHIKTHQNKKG
Procedure, shortened: as §1

[26] = molecular target: T18, ZFP SBS#461 (synthetic)
T18 chain: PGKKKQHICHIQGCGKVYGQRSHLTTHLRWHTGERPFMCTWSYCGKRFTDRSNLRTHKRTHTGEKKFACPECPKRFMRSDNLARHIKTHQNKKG
Procedure, shortened: as §1

[27] = molecular target: T19, ZFP SBS#1048 (synthetic)
T19 chain: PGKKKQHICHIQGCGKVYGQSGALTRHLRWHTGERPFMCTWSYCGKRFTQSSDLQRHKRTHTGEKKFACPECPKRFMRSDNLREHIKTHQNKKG
Procedure, shortened: as §1

[28] = molecular target: T20, ZFP SBS#1049 (synthetic)
T20 chain: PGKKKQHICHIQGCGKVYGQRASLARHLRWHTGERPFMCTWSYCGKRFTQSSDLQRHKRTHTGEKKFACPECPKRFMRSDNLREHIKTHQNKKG
Procedure, shortened: as §1

[29] = molecular target: ZFP SBS#1050 (synthetic)
Procedure, shortened: as §1

[30] = molecular target: T21, ZFP SBS#1055 (synthetic)
T21 chain: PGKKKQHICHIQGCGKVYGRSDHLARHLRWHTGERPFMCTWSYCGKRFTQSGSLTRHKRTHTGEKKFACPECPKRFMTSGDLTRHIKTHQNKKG
Procedure, shortened: as §1

[31] = molecular target: ZFP SBS#1056 (synthetic)
Procedure, shortened: as §1

[32] = molecular target: ZFP SBS#1057 (synthetic)
Procedure, shortened: as §1

[33] = molecular target: ZFP SBS#1054 (synthetic)
Procedure, shortened: as §1

[34] = molecular target: T22, ZFP SBS#1051 (synthetic)
T22 chain: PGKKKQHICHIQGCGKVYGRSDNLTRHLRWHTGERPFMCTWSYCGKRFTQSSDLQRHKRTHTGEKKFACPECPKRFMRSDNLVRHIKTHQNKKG
Procedure, shortened: as §1

[35] = molecular target: T23, ZFP SBS#1044 (synthetic)
T23 chain: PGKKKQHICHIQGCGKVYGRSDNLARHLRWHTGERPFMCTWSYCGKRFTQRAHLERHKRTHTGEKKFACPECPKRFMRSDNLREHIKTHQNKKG
Procedure, shortened: as §1

[36] = molecular target: ZFP SBS#1043 (synthetic)
Procedure, shortened: as §1

[37] = molecular target: T24, ZFP SBS#1060 (synthetic)
T24 chain: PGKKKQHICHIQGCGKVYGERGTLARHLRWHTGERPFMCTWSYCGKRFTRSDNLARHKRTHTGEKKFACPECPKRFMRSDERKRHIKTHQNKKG
Procedure, shortened: as §1

ZFP SBS#441 (synthetic), sequence (chain, as listed by the source): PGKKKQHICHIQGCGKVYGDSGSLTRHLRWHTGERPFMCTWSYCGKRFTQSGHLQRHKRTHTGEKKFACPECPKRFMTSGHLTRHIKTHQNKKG
ZFP SBS#453 (synthetic), sequence (chain, as listed by the source): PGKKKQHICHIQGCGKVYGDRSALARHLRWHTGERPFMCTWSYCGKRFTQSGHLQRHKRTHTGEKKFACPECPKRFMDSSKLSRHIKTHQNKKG
ZFP SBS#1043 (synthetic), sequence (chain, as listed by the source): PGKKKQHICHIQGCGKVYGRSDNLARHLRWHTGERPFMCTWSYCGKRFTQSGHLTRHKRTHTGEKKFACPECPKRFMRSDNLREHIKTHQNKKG
ZFP SBS#1050 (synthetic), sequence (chain, as listed by the source): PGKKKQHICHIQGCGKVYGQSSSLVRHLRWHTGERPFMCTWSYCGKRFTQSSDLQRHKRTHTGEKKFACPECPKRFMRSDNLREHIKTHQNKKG
ZFP SBS#944, sequence (P08047 other isoform, or with tags, fused parts or gaps): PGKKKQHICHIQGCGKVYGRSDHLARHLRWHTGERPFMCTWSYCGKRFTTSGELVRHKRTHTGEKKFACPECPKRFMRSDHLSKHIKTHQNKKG
ZFP SBS#942, sequence (P08047 other isoform, or with tags, fused parts or gaps): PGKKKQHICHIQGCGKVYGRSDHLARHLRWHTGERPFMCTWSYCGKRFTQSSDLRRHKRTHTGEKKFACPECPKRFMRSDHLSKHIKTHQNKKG
ZFP SBS#1057 (synthetic), sequence (chain, as listed by the source): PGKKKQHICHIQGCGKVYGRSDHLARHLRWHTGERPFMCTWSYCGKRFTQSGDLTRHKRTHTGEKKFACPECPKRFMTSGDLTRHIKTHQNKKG
ZFP SBS#1061 (synthetic), sequence (chain, as listed by the source): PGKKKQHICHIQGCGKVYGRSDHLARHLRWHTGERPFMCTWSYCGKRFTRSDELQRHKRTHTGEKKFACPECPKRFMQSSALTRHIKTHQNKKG
ZFP SBS#1045 (synthetic), sequence (chain, as listed by the source): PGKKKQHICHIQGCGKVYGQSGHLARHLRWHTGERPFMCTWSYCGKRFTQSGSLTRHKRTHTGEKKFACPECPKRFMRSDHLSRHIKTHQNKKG
ZFP SBS#1040, sequence (P08047 other isoform, or with tags, fused parts or gaps): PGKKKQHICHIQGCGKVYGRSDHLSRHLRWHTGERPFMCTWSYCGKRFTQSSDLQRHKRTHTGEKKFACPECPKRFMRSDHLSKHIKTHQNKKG
ZFP SBS#1054 (synthetic), sequence (chain, as listed by the source): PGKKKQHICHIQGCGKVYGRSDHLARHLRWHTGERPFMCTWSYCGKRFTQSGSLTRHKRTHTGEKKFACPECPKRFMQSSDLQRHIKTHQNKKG

B1: GGTGGAGTCA (dsDNA)
DNA 1: GGTGGAGTCA
DNA 2: TGACTCCACC
**Q.** What does the source list for B1?
**A.** Kd [1]: 250 nM; Kd [2]: 150 nM

B2: GGGGCAGGA (dsDNA)
DNA 1: GGGGCAGGA
DNA 2: TCCTGCCCC
**Q.** What does the source list for B2?
**A.** Kd [3]: 0.15 nM; Kd [4]: 0.09 nM; Kd [5]: 24.7 nM

B3: GGGGCTGGG (dsDNA)
DNA 1: GGGGCTGGG
DNA 2: CCCAGCCCC
**Q.** What does the source list for B3?
**A.** Kd [6]: 0.05 nM; Kd [7]: 0.027 nM; Kd [8]: 3.1 nM; Kd [9]: 0.13 nM; Kd [10]: 0.077 nM; Kd [11]: 1.37 nM; Kd [12]: 0.067 nM

B4: GAGGGCGGT (dsDNA)
DNA 1: GAGGGCGGT
DNA 2: ACCGCCCTC
**Q.** Which Kd [13] does the source give for B4 here?
**A.** Its Kd is 0.15 nM.

**Q.** And the Kd [14]?
**A.** Its Kd is 1.37 nM.

B5: GCGGCAGTG (dsDNA)
DNA 1: GCGGCAGTG
DNA 2: CACTGCCGC
**Q.** With B5 as the binder, how does the Kd [15] read?
**A.** Its Kd is 0.453 nM.

B6: TAGGACGGG (dsDNA)
DNA 1: TAGGACGGG
DNA 2: CCCGTCCTA
**Q.** With B6 as the binder, how does the Kd [16] read?
**A.** The Kd was 0.025 nM.

**Q.** And the Kd [17]?
**A.** The Kd was 0.28 nM.

B7: TGGGGCGGG (dsDNA)
DNA 1: TGGGGCGGG
DNA 2: CCCGCCCCA
**Q.** How did the Kd [18] turn out when B7 was run?
**A.** The Kd was 1.37 nM.

B8: GTTGCGGGG (dsDNA)
DNA 1: GTTGCGGGG
DNA 2: CCCCGCAAC
**Q.** What does the source list for B8?
**A.** Kd [19]: 0.068 nM; Kd [20]: 0.165 nM; Kd [21]: 0.96 nM

B9: GGGGCCGCG (dsDNA)
DNA 1: GGGGCCGCG
DNA 2: CGCGGCCCC
**Q.** Which results are given for B9?
**A.** Kd [22]: 6.28 nM; Kd [23]: 0.152 nM

B10: TCATAGTAG (dsDNA)
DNA 1: TCATAGTAG
DNA 2: CTACTATGA
**Q.** Which Kd [24] does the source give for B10 here?
**A.** Its Kd is 2.06 nM.

**Q.** And the Kd [25]?
**A.** The Kd was 250 nM.

B11: GAGTACTGTA (dsDNA)
DNA 1: GAGTACTGTA
DNA 2: TACAGTACTC
**Q.** How did the Kd [26] turn out when B11 was run?
**A.** The Kd was 120 nM.

B12: CAGGCTGTA (dsDNA)
DNA 1: CAGGCTGTA
DNA 2: TACAGCCTG
**Q.** Which Kd [27] does the source give for B12 here?
**A.** The Kd was 1.39 nM.

**Q.** What about the Kd [28] of the same binder?
**A.** Its Kd is 55.6 nM.

**Q.** And the Kd [29]?
**A.** The Kd was 0.125 nM.

B13: GCTGCAGGG (dsDNA)
DNA 1: GCTGCAGGG
DNA 2: CCCTGCAGC
**Q.** Which Kd [30] does the source give for B13 here?
**A.** Its Kd is 18.7 nM.

**Q.** What about the Kd [31] of the same binder?
**A.** The Kd was 0.045 nM.

**Q.** What about the Kd [32] of the same binder?
**A.** Its Kd is 0.483 nM.

**Q.** What about the Kd [33] of the same binder?
**A.** Its Kd is 0.033 nM.

B14: GAGGCTGAG (dsDNA)
DNA 1: GAGGCTGAG
DNA 2: CTCAGCCTC
**Q.** With B14 as the binder, how does the Kd [34] read?
**A.** The Kd was 0.02 nM.

B15: CAGGGAGAG (dsDNA)
DNA 1: CAGGGAGAG
DNA 2: CTCTCCCTG
**Q.** With B15 as the binder, how does the Kd [35] read?
**A.** The Kd was 1.07 nM.

**Q.** And the Kd [36]?
**A.** Its Kd is 0.16 nM.

B16: GCGGAGGCC (dsDNA)
DNA 1: GCGGAGGCC
DNA 2: GGCCTCCGC
**Q.** Which Kd [37] does the source give for B16 here?
**A.** Its Kd is 0.69 nM.

Reference: patent US20030068675, “Position dependent recognition of GNN nucleotide triplets by zinc fingers” (published 2003)
